Results reported in US20060257955.

Biological target: T1, labeled peptide ecot2 (T2), Dabcyl-KVSRRRRRGGD-Edans (not fully specified)
T1 chain: KVSRRRRRGGD

B1: E. coli outer membrane protease OmpT (protein)
chain: STETLSFTPDNINADISLGTLSGKTKERVYLAEEGGRKVSQLDWKFNNAAIIKGAINWDLMPQISIGAAGWTTLGSRGGNMVDQDWMDSSNPGTWTDESRHPDTQLNYANEFDLNIKGWLLNEPNYRLGLMAGYQESRYSFTARGGSYIYSSEEGFRDDIGSFPNGERAIGYKQRFKMPYIGLTGSYRYEDFELGGTFKYSGWVESSDNDEHYDPGKRITYRSKVKDQNYYSVAVNAGYYVTPNAKVYVEGAWNRVTNKKGNTSLYDHNNNTSDYSKNGAGIENYNFITTAGLKYTF
protease assay (cleavage of substrate T2, relative fluorescence), buffer with 5% fetal bovine serum: detection of the presence of E. coli in the E. coli sample occurred in the presence of FBS | protease assay (cleavage of substrate T2, relative fluorescence), simulated wound fluid buffer with 5% bovine serum albumin: the protease reactivity of the E. coli sample was not affected by the simulated wound fluid buffer
